Test results reported in patent US20070274981A1 (Eli Lilly, published 2007).

Tests used:
Recombinant FGFR-1(IIIb) [1] = biological target: T1, Recombinant FGFR-1(IIIb) (UniProt P11362-19 22-376); assay: BiaCore analyses
T1 construct: Bought (R&D Systems); also called FGFR-1b; FGFR-(IIIb); not shown: Fc-tag of the recombinant receptor (detected with anti-human Fc)
T1 sequence (looked up): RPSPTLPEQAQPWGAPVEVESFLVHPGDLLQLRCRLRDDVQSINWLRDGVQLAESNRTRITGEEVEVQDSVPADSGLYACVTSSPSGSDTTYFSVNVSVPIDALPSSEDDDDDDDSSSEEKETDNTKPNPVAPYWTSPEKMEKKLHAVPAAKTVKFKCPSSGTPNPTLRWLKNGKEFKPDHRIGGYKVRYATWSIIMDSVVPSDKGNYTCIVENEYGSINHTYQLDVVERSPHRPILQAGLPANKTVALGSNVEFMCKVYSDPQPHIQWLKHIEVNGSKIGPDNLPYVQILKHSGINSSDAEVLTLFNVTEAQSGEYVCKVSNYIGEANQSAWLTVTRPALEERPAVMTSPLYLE

Recombinant FGFR-4 [2] = biological target: T2, Recombinant FGFR-4 (UniProt P22455 22-369); assay: kinetic analysis (BiaCore)
T2 construct: Bought (R&D Systems); also called FGFR-4(IIIc)
T2 sequence (looked up): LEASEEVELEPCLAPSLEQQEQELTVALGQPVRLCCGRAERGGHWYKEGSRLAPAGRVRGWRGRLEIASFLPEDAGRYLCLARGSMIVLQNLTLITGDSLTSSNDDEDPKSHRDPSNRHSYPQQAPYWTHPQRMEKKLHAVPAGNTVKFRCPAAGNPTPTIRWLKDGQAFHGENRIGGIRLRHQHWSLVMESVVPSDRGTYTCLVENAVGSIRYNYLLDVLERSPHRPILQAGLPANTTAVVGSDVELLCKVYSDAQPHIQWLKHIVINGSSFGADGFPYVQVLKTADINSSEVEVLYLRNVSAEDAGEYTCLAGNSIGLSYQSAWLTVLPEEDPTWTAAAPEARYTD

Recombinant FGFR-1(IIIb) [3] = biological target: T1, Recombinant FGFR-1(IIIb); assay: ELISA blocking assay: FGFR-1(IIIb) binding to immobilised FGF-1
Description: (§1) Recombinant FGFs (R&D systems, Minneapolis, Minn.) were coated on Immulon® 2B microtiter plates (ThermoLab Systems, Franklin, Mass.) at concentrations of 0.5-2 μg/ml for 2 hrs. The plates were then washed with 0.2% Tween20/PBS, and blocked with 5% milk/PBS for 2 hrs before use. Phage or antibody was serially diluted with 5 μg/ml heparin (Sigma, St Louis, Mo.), 5% milk, PBS. Recombinant FGFR-1 (R&D Systems) was then added to a final concentration of 1 μg/ml. […] Plates were then washed 3 times with 0.2% Tween20/PBS. The bound receptors were detected using an anti-human Fc monoclonal antibody coupled with HRP (Pierce Biotechnology Inc., Rockford, Ill.) solution prepared according to supplier's instructions. Data were presented as % inhibition of ligand-receptor binding of the controls.
(§2) The blocking activities to fully active, native FGFR-1 receptor were determined in the cell-based blocking assay.

Recombinant FGFR-1(IIIb) [4] = biological target: T1, Recombinant FGFR-1(IIIb); assay: kinetic analysis (BiaCore)
Recombinant FGFR-1(IIIb) [5] = biological target: T1, Recombinant FGFR-1(IIIb); assay: BiaCore 3000 biosensor, binding kinetics
Recombinant FGFR-4 [6] = biological target: T2, Recombinant FGFR-4; assay: BiaCore 3000 biosensor, binding kinetics
Recombinant FGFR-1(IIIb) [7] = biological target: T1, Recombinant FGFR-1(IIIb); assay: ELISA blocking assay: FGFR-1(IIIb) binding to immobilised FGF-2
Description: as §1, §2

B1: FR1-4H (antibody, V domains shown)
VH: QVQLVEFGPGLVKPSETLSLTCTVSGGSISSYYWSWIRQPPGKGLEWIGYIYYSGSTNYNPSLKSRVAISVDTSKNQFSLKLSSVTAADTAVYYCAREYYYDSSGYYFYAFDIWGQGTTVTVSS
VL: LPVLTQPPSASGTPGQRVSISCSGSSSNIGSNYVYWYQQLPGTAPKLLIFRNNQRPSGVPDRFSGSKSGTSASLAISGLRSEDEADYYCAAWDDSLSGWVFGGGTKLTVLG
notes: Isolated by the same procedure as FR1-H7 and FR1-A1
Recombinant FGFR-1(IIIb) [1]
  Kd: 1.1 nM

B2: FR1-A1 (antibody, V domains shown)
VH: QVQLVQSGAEVKKPGSSVKVSCKASGQTFTGYYMHWVRQAPGQGLEWMGRIIPILGIANYAQKFQGRVTITADKSTSTAYMELSSLRSEDTAVYYCARGGDLGGMDVWGQG
VL: EIVLTQSPLSLPVTPGEPASISCRSSQSLRHSNGYNYLDWYLQKPGQSPQLLIYLASNRASGVPDRFSGSGSGTDFTLKISRVEAEDVGVYYCMQALQIPPTFGPGTKVDIKR
notes: also called FR1-A1 antibody
Recombinant FGFR-4 [2]
  Kd: 90 nM

B3: FR1-H7 (antibody, V domains shown)
VH: EVQLVQSGAEVKKPGASVKVSCKVSGYTFTDYYMHWVQQAPGKGLEWMGLVDPEDGETIYAEKFQGRVTITADTSTDTAYMELSSLRSEDTAVYYCARDDYMDVWGKGTLVTVSS
VL: ETTLTQSPDTLSLSPGEGATLSCRASQSVSGSALAWYQQKPGQAPRLLIYDASSRATGVPDRFSGSGSGADFSLTISRLEPEDFAVYSCQQYGSSPLTFGPGTKVDVKR
notes: also called FR1-H7 antibody
Recombinant FGFR-1(IIIb) [3]
  IC50: ~5 nM
Recombinant FGFR-1(IIIb) [4]
  Kd: ~0.05 nM
Recombinant FGFR-1(IIIb) [5]
  Kd: 0.06 nM
Recombinant FGFR-4 [6]
  Kd: 200 nM
Recombinant FGFR-1(IIIb) [7]
  IC50: 2 to 5 nM
